Measurements reported in US20100298612.

What was measured:
[1] = target: T1, Mycobacterium sp. (strain JLS) carboxylic acid reductase (CAR)
T1 chain: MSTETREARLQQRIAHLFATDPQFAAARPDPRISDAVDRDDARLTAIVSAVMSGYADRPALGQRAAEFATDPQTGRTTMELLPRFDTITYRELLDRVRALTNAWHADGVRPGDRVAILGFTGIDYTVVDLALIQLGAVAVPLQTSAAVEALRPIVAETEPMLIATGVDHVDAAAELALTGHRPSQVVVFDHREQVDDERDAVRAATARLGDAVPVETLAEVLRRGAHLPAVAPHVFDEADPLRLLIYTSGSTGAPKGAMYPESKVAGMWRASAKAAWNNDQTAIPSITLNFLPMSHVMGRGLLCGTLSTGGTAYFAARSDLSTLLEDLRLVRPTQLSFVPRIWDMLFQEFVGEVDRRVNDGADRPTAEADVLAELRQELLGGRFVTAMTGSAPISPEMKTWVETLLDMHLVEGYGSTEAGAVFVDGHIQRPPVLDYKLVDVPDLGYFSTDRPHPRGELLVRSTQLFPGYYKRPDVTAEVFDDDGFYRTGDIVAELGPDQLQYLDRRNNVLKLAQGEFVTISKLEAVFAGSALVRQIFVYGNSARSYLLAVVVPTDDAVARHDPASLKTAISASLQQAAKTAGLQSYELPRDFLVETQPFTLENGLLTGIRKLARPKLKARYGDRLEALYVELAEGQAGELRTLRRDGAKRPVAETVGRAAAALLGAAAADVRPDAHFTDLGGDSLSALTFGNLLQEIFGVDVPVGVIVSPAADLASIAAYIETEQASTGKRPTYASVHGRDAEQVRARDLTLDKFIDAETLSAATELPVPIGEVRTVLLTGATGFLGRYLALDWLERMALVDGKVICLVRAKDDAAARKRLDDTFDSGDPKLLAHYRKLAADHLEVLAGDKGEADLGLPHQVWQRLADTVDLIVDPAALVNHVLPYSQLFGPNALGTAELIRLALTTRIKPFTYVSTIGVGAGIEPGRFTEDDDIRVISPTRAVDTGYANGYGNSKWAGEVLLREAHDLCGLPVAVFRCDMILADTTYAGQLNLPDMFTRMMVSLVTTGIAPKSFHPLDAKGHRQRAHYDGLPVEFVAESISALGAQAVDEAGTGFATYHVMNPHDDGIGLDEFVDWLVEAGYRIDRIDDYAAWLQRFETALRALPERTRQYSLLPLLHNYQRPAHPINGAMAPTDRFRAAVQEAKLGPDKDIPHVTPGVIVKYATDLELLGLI

[2] = target: T2, Nocardia NRRL5646 carboxylic acid reductase (CAR)
T2 chain: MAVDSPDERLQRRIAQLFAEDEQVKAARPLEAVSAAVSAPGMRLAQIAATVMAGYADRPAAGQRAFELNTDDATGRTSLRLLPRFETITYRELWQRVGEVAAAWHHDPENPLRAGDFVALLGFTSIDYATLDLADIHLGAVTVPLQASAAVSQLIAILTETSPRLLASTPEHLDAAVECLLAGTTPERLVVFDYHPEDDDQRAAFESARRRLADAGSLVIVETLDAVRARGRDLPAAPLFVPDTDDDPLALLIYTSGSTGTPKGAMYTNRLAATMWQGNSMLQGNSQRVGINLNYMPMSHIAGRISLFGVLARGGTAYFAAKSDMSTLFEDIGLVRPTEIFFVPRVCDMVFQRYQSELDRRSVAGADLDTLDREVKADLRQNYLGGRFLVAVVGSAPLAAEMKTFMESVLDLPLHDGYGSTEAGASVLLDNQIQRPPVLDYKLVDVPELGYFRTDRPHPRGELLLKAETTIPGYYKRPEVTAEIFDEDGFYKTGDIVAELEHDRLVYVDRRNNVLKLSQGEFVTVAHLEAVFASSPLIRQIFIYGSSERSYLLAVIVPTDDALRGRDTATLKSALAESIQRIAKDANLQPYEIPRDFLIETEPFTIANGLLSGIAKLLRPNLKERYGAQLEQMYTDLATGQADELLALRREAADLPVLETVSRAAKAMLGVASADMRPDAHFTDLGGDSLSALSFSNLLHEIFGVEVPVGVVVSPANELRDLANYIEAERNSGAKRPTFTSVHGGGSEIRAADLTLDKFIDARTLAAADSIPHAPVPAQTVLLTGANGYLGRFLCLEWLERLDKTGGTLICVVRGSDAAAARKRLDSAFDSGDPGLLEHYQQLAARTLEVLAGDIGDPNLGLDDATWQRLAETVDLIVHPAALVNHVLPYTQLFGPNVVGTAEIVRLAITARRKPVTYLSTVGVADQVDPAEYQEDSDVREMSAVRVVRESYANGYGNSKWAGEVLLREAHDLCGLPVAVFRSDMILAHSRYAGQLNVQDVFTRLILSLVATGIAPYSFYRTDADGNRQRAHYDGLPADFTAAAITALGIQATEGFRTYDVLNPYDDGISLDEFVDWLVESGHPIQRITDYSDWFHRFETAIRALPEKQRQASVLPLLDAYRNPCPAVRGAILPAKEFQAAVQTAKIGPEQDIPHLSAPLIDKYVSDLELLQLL

B1: Nocardia NRRL 5646 phosphopantetheinyl transferase (PPTase) (protein)
chain: MIETILPAGVESAELLEYPEDLKAHPAEEHLIAKSVEKRRRDFIGARHCARLALAELGEPPVAIGKGERGAPIWPRGVVGSLTHCDGYRAAAVAHKMRFRSIGIDAEPHATLPEGVLDSVSLPPEREWLKTTDSALHLDRLLFCAKEATYKAWWPLTARWLGFEEAHITFEIEDGSADSGNGTFHSELLVPGQTNDGGTPLLSFDGRWLIADGFILTAIAYA
[1]
  CAR activity (in vitro conversion of hexadecanoic acid to 1-hexadecanol; Y. lipolytica CAR lysate pre-incubated with E. coli Nocardia PPTase lysate), fold improvement: by 9-20 times
[2]
  CAR activity (in vitro conversion of hexadecanoic acid to 1-hexadecanol; Y. lipolytica CAR lysate pre-incubated with E. coli Nocardia PPTase lysate), fold improvement: by 3-5 times
